Tests used:
[1] = tested on: T1, wild type Penicillium oxalicum glucoamylase
T1 sequence: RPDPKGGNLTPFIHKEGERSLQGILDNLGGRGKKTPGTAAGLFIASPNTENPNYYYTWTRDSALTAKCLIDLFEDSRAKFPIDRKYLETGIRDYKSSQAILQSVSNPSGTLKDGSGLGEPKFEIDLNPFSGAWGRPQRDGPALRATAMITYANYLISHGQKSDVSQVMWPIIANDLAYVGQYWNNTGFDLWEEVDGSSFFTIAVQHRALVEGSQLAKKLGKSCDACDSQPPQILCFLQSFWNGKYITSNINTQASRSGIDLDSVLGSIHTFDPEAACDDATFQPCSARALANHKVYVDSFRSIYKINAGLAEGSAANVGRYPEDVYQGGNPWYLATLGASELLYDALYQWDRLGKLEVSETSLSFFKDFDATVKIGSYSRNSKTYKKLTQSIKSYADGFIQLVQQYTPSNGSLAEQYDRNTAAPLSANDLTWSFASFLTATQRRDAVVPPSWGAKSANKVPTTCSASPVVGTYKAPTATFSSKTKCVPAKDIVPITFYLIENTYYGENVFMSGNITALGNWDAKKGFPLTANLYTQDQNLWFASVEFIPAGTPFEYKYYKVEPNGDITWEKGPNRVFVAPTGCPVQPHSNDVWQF

[2] = molecular target: Glucoamylase PE001: variant of the Penicillium oxalicum glucoamylase having a K79V substitution (Penicillium oxalicum); experiment: cell-based or functional assay
[3] = molecular target: wild type Penicillium oxalicum glucoamylase (Penicillium oxalicum); experiment: cell-based or functional assay

Row | intact glucoamylase (ca. 70 kDa), SDS-PAGE after protease treatment overnight at 4 °C [2] | intact glucoamylase (ca. 70 kDa), SDS-PAGE after protease treatment overnight at 32 °C [2] | intact glucoamylase (ca. 70 kDa), SDS-PAGE after protease treatment overnight at 4 °C [3] | intact glucoamylase (ca. 70 kDa), SDS-PAGE after protease treatment overnight at 32 °C [3] | Substance | cleaved glucoamylase (ca. 60 kDa), SDS-PAGE after protease treatment overnight at 4 °C [1] | cleaved glucoamylase (ca. 60 kDa), SDS-PAGE after protease treatment overnight at 32 °C [1]
1 | – | – | – | – | aorsin | 60% | 90%
2 | 100% | 100% | 40% | 10% | aorsin (enzyme) | – | –
3 | – | – | – | – | aspergillopepsin I | – | 10%
4 | 100% | 100% | 100% | 90% | aspergillopepsin I (enzyme) | – | –

— patent US20200095615A1
